The target in this test is low-density lipoprotein receptor LRP1 on human iPSC-derived cortical excitatory neurons (human (endogenous in iPSC-derived neurons)) (UniProt Q07954).
Chain of UniProt Q07954 (Q07954 20-4544): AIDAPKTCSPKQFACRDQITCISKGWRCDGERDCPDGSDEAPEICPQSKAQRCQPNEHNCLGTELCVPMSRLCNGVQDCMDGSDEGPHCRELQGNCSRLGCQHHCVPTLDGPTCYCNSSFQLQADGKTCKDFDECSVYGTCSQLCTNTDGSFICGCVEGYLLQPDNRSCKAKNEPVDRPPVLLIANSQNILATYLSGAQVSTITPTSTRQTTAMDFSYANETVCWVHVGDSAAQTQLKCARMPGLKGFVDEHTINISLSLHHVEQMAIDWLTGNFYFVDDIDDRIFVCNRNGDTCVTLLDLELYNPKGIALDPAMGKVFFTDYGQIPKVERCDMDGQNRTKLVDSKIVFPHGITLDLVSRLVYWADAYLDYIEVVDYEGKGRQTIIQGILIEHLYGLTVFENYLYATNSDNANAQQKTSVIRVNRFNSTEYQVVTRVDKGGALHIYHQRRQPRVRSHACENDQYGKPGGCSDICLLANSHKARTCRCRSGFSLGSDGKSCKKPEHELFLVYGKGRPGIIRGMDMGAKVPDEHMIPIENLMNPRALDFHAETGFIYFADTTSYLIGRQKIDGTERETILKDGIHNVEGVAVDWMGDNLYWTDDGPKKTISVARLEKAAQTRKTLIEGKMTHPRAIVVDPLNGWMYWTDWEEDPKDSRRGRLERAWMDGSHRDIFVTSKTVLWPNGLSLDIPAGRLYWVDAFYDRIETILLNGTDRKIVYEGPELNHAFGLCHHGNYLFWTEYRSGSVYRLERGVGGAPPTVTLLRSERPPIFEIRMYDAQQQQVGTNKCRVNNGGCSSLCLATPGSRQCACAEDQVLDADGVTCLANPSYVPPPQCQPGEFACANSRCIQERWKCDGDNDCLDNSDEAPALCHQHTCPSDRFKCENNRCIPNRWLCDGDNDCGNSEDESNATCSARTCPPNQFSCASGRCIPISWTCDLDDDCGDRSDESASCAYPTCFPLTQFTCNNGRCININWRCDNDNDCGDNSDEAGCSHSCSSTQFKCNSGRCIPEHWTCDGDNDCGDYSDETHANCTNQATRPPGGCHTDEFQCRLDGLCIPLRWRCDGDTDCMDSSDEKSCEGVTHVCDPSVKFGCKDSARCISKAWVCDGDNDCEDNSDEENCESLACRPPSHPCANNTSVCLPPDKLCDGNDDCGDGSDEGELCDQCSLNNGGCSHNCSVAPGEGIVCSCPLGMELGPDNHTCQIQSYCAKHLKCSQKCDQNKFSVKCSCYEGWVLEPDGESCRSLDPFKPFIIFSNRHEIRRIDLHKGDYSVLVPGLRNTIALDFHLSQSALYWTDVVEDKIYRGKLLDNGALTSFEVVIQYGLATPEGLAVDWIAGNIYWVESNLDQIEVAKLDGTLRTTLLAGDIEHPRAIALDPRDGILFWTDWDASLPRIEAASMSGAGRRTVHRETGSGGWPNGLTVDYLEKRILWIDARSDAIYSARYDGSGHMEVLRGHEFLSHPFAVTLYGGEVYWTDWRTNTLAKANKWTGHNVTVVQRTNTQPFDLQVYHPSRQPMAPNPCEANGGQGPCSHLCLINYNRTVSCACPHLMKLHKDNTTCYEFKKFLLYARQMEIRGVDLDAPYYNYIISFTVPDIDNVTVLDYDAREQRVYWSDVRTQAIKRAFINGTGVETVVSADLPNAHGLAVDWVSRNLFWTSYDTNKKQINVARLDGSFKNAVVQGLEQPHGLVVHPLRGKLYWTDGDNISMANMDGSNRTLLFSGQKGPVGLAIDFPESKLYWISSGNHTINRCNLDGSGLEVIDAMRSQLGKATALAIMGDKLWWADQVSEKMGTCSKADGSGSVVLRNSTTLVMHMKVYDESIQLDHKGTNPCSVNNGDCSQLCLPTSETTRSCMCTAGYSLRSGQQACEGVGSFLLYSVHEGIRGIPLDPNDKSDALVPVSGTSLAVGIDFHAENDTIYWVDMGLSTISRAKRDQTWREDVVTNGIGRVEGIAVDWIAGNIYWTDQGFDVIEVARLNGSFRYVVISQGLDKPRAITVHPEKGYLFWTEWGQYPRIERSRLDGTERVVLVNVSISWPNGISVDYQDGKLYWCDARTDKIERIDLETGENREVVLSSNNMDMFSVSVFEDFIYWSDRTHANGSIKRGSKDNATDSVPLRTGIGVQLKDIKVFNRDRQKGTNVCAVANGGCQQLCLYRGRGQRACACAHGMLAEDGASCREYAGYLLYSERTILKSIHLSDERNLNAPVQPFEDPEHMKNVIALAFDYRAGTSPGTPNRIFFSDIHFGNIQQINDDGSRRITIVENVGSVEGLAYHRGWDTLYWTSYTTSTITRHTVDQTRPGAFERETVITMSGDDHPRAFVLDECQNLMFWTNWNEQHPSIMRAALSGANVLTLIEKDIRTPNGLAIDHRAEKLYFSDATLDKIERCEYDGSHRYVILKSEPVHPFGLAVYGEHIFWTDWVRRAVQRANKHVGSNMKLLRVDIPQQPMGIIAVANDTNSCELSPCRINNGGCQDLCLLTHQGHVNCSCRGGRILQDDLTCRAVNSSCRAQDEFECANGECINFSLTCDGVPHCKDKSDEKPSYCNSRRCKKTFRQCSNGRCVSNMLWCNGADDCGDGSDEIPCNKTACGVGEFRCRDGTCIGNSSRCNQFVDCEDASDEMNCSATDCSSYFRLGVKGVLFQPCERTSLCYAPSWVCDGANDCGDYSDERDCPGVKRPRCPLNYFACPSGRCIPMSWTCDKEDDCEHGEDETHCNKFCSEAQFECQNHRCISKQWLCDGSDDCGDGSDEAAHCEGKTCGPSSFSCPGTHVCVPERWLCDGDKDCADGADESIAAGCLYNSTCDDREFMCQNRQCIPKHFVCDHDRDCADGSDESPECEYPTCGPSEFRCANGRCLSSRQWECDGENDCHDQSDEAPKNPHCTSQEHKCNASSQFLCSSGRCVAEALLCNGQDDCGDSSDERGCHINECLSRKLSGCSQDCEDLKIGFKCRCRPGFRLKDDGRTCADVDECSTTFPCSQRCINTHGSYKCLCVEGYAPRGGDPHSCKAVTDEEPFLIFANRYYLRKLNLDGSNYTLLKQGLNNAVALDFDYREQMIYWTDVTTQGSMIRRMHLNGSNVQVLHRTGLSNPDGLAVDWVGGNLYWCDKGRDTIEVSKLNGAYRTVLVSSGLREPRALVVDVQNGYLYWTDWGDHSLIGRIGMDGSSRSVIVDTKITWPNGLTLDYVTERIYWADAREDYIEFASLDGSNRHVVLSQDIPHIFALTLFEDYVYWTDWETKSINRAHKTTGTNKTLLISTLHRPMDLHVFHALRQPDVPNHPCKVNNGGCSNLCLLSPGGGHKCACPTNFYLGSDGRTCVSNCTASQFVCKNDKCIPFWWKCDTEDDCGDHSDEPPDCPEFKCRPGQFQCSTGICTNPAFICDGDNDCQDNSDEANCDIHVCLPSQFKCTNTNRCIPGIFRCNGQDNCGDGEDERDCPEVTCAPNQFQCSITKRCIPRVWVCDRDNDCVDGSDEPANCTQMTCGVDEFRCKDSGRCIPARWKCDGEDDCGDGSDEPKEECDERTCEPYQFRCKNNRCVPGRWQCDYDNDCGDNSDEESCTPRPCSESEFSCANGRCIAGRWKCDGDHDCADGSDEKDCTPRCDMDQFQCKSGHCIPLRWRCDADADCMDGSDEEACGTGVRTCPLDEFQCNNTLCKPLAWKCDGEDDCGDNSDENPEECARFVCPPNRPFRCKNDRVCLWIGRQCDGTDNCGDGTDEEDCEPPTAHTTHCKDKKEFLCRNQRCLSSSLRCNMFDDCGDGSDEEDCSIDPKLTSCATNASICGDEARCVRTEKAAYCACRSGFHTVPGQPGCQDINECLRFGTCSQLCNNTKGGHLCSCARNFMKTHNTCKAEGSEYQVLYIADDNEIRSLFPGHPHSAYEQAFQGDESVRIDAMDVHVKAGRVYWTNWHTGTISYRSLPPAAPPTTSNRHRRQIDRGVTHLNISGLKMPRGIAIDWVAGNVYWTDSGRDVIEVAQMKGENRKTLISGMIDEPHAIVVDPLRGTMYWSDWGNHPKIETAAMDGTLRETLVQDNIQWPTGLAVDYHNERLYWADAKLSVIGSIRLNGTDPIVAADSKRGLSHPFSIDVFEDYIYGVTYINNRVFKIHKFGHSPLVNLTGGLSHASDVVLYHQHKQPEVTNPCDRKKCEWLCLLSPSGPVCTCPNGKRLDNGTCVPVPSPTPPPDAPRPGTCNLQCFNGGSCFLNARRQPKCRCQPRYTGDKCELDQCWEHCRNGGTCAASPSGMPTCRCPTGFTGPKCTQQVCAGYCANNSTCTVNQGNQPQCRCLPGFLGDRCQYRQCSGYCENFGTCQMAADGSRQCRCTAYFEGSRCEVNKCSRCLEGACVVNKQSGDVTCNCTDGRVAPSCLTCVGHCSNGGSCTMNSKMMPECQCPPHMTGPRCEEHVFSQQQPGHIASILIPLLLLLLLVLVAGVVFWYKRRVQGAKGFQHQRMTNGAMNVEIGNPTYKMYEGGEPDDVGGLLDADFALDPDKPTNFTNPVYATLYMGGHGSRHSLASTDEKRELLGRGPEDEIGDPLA

With “monomeric tau P301S (tau P301S_FLAG×3_10×his-tag), pHrodo-labelled (natural protein)”, the decrease in neuronal uptake of monomeric tau-pHrodo (tau-positive objects, live imaging over 4 h) with 100 nM soluble recombinant LRP1 domain IV (Human LRP1 Cluster IV Fc Chimera, R&D Systems) added is 68% and the neuronal uptake of monomeric tau-pHrodo (tau-positive objects, live imaging over 4 h) with 10 nM RAP chaperone (Human LRPAP Protein, R&D Systems) added to block LDL receptors was 63%.

The values above are taken from paper PMC12436637.
